Experimental data taken from patent US20250059285A1 (ARGENX, published 2025).

T1: human Gal10-His (human, UniProt Q05315 2-142, limits assumed)
T1 construct: also called hGal10-His; human Gal10-His tagged; not shown: His tag
T1 sequence: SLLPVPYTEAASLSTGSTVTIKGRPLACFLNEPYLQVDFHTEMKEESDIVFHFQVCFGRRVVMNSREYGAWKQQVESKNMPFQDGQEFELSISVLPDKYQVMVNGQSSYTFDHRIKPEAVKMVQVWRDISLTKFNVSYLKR

T2: recombinant human Charcot-Leyden crystals (crystalline galectin-10) (human, UniProt Q05315 2-142, limits assumed)
T2 sequence: T1 sequence

B1: g20H09 (Fab) (Fab, V domains shown)
VH: EVQLLESGGGLVQPGGSLRLSCAASGFTFRSYDMSWVRQAPGKGLEWVSAIKWHRITYYADSVKGRFTISRDNSKNTLYLQMNSLRAEDTAVYYCATTHGIGTLGFGSWGQGTLVTVSS
VL: SYELTQPLSVSVALGQTARITCDGNNIGSKSAQWYQQKPGQAPVLVIYADEYRPEGIPERFSGSNSGNTATLTISRAQAGDEADYYCQVWDGSAAVFGGGTQLTVL
notes: same VH/VL
B2: g24F02_N53A (human Fab) (Fab, V domains shown)
VH: EVQLLESGGGLVQPGGSLRLSCAASGFTFSSYAMSWVRQAPGKGLEWVSAINAGGGSTSYADSVKGRFTISRDNSKNTLYLQMNSLRAEDTAVYYCAKGLRVGVLGFDYWGQGTLVTVSS
VL: B1 VL
notes: Human Fab backbone: human CH1 and human lambda constant domain (pUPEX vectors); also called g24F02_N53A_2W

What was measured:
human Gal10-His [1] = target: T1, human Gal10-His; assay: summary of periplasmic extract screening (BLI or SPR)
human Gal10-His [2] = target: T1, human Gal10-His; assay: SPR Biacore 3000, purified hFab on captured Gal10-His
Protocol: (§1) The binding properties of the selected Fab clones to human Gal10 were analyzed via a capture method established on a Biacore 3000 instrument. Two concentrations of the selected Fab clones were tested on human Gal10-His immobilized on a CM5 chip coated with a monoclonal anti-His. As controls, the clone g7B07 and g7B07_N53A were injected at the beginning and the end of the run. Briefly, a CM5 chip was coated with a monoclonal anti-His antibody (4000 RU), then a fixed concentration of the human Gal10-His (25 μg/mL) was captured on the anti-His chip before receiving two concentrations of the clones in the human Fab backbone.

human Gal10-His [3] = target: T1, human Gal10-His; assay: SPR slope against calibrators on captured Gal10-His; T0 sample
Protocol: (§2) The binding properties of the seven selected clones following two weeks of temperature stress was analysed using an optimized capture method on a Biacore 3000 instrument. The binding properties of the stressed samples were determined, compared to the calibration point, and expressed as a percentage of Relative Activity (% RA).
(§3) Briefly, a capture method was set-up on a Biacore 3000 instrument. For this purpose, a CM5 chip was coated with a monoclonal anti-His antibody (4000 RU), then a fixed concentration of the human Gal10-His (25 μg/mL) was captured on the anti-His chip before receiving duplicate injections of the calibrators, QC samples and temperature stressed samples of each clone. The slope of each injected sample was then calculated using the BIA evaluation software. Concentrations of the QC samples and temperature stressed samples were back-calculated by interpolating the obtained slopes of these samples to the calibrator curve. Obtained values were within +/−20% of the nominal concentration of the tested samples and are expressed as average relative accuracy (avg % RA) (Table 13).

[4] = target: T3, cynomolgus Gal10-His (WGS isoform) (cynomolgus); assay: SPR, summary table, cynomolgus_WGS Gal10
T3 construct: also called cynomolgus antigen

human Gal10-His [5] = target: T1, human Gal10-His; assay: SPR against T0 reference; sample 4 weeks at 37 C
Protocol: (§4) The functional active concentration of the candidates was then assessed by SPR on a Biacore 3000 instrument (FIG. 4). All samples were evaluated with methods meeting the standard qualification criteria. Aliquots were tested at predefined test concentrations against titration curves from reference samples (T0, −80° C. storage) and in the presence of quality control (QC) samples covering a range of 70-130% relative activity (% RA) towards the reference material.
(§5) comparison/reference ⁽¹⁾ samples correspond to aliquots kept at +37° C. for 4 weeks ⁽²⁾ samples correspond to aliquots kept at +5° C. for 4 weeks prior to nebulization. In brief, samples were nebulized with an Aerogen Solo active vibrating mesh nebulizer that converted a drug solution into an inhalable aerosol. Three different devices for each time-point were used per clone and results are reported by the device (nebulizer) serial number. In case of device fouling, indicated by longer nebulization times […]

human Gal10-His [6] = target: T1, human Gal10-His; assay: competition ELISA on coated Gal10-His; hFab 20 ug/mL, competitor g7B07-hFab-Biot, streptavidin-HRP
Protocol: An epitope binning analysis of the humanized Fab clones was carried out in comparison with the humanized Fab of g7B07.
For this experiment, a sub-optimal concentration of the biotinylated clone g7B07-humanized Fab was added to the Gal10 coated plate and pre-incubated with the selected clones. The percentage competition with g7B07 was then determined (Table 17). Motavizumab (Mota) in a human Fab backbone was used as a negative control (0% competition). Clone g7B07 was used as the positive control for competition and was therefore set as the 100% competition value. The anti-human specific clone 1D11 (binding to Tyrosine 69 residue) was included in the tested panel as a negative control for competition with 7B07 for Gal10 binding because it was known that clone 1D11 binds to the opposite side of Gal10 (including Tyrosine 69).

human Gal10-His [7] = target: T1, human Gal10-His; assay: SPR Biacore 3000, Fab periplasmic extract on Gal10-His-coated CM5
Protocol: The binding properties of the Fabs (periplasmic extract) to human Gal10-His were analyzed by SPR with a Biacore 3000 instrument. For this purpose, the diluted periplasmic extract was applied on a CM5 chip coated with human Gal10-His. As a positive control, a 20 nM injection of the purified g7B07 clone in the human Fab backbone was included at the beginning and end of the run.
The binding capacity of the Fab periplasmic extract was analyzed by SPR technology using a Biacore 3000. Briefly, diluted periplasmic extracts were injected on CM5 chip coated with 2500 RU of Gal10-His. The amplitude of the binding (Rmax), the dissociation (off-rate) of each clone, as well as the off-rate fold change compared to the controls (g7B07 and g7B07_N53A) are indicated. Clones g20H09 and g23H09 had similar or better off rate compared to the control g7B07 (Table 10). The randomized part of the CDR2 sequence is underlined (Table 10).

human Gal10-His [8] = target: T1, human Gal10-His; assay: SPR against T0 reference; sample 4 weeks at 5 C, then nebulized
Protocol: as §4, §5

human Gal10-His [9] = target: T1, human Gal10-His; assay: SPR, summary table, human Gal10
human Gal10-His [10] = target: T1, human Gal10-His; assay: SPR Biacore 3000, purified hFab (2 conc.) on Gal10-His captured by anti-His CM5
Protocol: as §1

human Gal10-His [11] = target: T1, human Gal10-His; assay: SPR slope against calibrators on captured Gal10-His; sample 2 weeks at 37 C
Protocol: as §2, §3

[12] = target: T2, recombinant human Charcot-Leyden …; assay: cell-based or functional assay
human Gal10-His [13] = target: T1, human Gal10-His; assay: SPR, overview table of lead Fab candidates
[14] = target: T3, cynomolgus Gal10-His (WGS isoform); assay: SPR Biacore 3000, hFab on cynomolgus Gal10-His (WGS) captured by anti-His CM5
Protocol: (§6) The binding properties of the selected clones to human and cynomolgus Gal10 was analyzed via a capture method established on a Biacore 3000 instrument.
(§7) For this purpose, two approaches were used. In the first, two concentrations of the selected clones were applied on cynomolgus (WGS isoform) Gal10-His capture on a CM5 chip coated with a monoclonal anti-His antibody. The second approach involved a serial dilution that was applied on human or cynomolgus (WGS isoform) Gal10-His in the same set-up.

human Gal10-His [15] = target: T1, human Gal10-His; assay: SPR Biacore 3000, hFab on captured human Gal10-His; column head prints (M), the text gives nM
Protocol: as §6, §7

human Gal10-His [16] = target: T1, human Gal10-His; assay: SPR Biacore 3000, hFab on human Gal10-His captured by anti-His CM5
Protocol: as §6, §7

[17] = target: T3, cynomolgus Gal10-His (WGS isoform); assay: SPR Biacore 3000, hFab on captured cynomolgus Gal10-His (WGS); column head prints (M), the text gives nM
Protocol: as §6, §7

human Gal10-His [18] = target: T1, human Gal10-His; assay: SPR Biacore 3000, hFab on captured human Gal10-His
From the text: as §7
Further characterization of the cynomolgus cross-reactivity of these clones highlighted g24F02_N53A and g23H09.

Row | Binder | % Relative Activity (RA) on Biacore (human Gal10-His [3]) | Kd [4] | koff [4] | % relative activity by SPR (human Gal10-His [5]) | % Competition against g7B07-Biot (human Gal10-His [6]) | Mean OD value (human Gal10-His [6]) | % relative activity by SPR (human Gal10-His [8]) | Kd (human Gal10-His [9]) | koff (human Gal10-His [9]) | Kd (human Gal10-His [10]) | kd-fold drop vs g7B07 (human Gal10-His [10]) | koff (human Gal10-His [10]) | kon (human Gal10-His [10]) | % Relative Activity (RA) on Biacore (human Gal10-His [11]) | crystal dissolution % Relative Activity towards the reference T0 after 2 h, nebulized [12] | crystal dissolution % Relative Activity towards the reference T0 after 2 h, stressed [12] | Kd (human Gal10-His [13]) | koff (human Gal10-His [13]) | also measured
1 | B1 | 110% | 22 nM | 0.046 s⁻¹ | 101% | 93.2% | 0.33 OD | 97% | 17.5 nM | 0.015 s⁻¹ | 17.5 nM | 0.3 fold | 0.015 s⁻¹ | 860000 M⁻¹ s⁻¹ | 86% | 66% | 96% | 17.7 nM | 0.047 s⁻¹ | kd, fold compared to g7B07 (BLI or SPR) (human Gal10-His [1]): 0.8 fold; fold higher dissociation rate than g7B07 (human Gal10-His [2]): 3 fold; Fold off-rate compared to g7B07 (human Gal10-His [7]): 1.3 fold; koff (human Gal10-His [7]): 0.0088 s⁻¹; recGal10 crystal dissolution EC50 (T2 h), Assay 1, nebulized [12]: 395 µg/mL; recGal10 crystal dissolution EC50 (T2 h), Assay 1, stressed (4 W at 37 C) [12]: 272 µg/mL; recGal10 crystal dissolution EC50 (T2 h), Assay 1, unstressed (T0) [12]: 260 µg/mL
2 | B2 | 98% | 8 nM | 0.0088 s⁻¹ | 103% | 99% | 0.2 OD | 111% | 1.4 nM | 0.0018 s⁻¹ | 2.3 nM | 2.8 fold | 0.0016 s⁻¹ | 710000 M⁻¹ s⁻¹ | 99% | 120% | 117% | 1.4 nM | 0.0018 s⁻¹ | Amplitude R0 [14]: 544 RU; koff [14]: 0.0088 s⁻¹; kon [14]: 1.1e+06 M⁻¹ s⁻¹; Kd (human Gal10-His [15]): 1.43 nM; fold better affinity than g7B07 (human Gal10-His [2]): 4.7 fold; Amplitude R0 (human Gal10-His [16]): 647 RU; koff (human Gal10-His [16]): 0.0018 s⁻¹; kon (human Gal10-His [16]): 1.3e+06 M⁻¹ s⁻¹; Kd [17]: 8 nM; recGal10 crystal dissolution EC50 (T2 h), Assay 2, nebulized [12]: 159 µg/mL; recGal10 crystal dissolution EC50 (T2 h), Assay 2, stressed (4 W at 37 C) [12]: 164 µg/mL; recGal10 crystal dissolution EC50 (T2 h), Assay 2, unstressed (T0) [12]: 191 µg/mL; fold better affinity than g7B07 (human Gal10-His [18]): 6.3 fold; fold better off-rate than g7B07 (human Gal10-His [18]): 3.5 fold
